Our source for the Kd values is publication PMC6050537 (2018).

For this assay, the target named is T1, Full length IDOL (1–445) (UniProt Q8WY64 1-445, NT-647-NHS dye (only the labelled copy in the MST assays)).
T1 chain: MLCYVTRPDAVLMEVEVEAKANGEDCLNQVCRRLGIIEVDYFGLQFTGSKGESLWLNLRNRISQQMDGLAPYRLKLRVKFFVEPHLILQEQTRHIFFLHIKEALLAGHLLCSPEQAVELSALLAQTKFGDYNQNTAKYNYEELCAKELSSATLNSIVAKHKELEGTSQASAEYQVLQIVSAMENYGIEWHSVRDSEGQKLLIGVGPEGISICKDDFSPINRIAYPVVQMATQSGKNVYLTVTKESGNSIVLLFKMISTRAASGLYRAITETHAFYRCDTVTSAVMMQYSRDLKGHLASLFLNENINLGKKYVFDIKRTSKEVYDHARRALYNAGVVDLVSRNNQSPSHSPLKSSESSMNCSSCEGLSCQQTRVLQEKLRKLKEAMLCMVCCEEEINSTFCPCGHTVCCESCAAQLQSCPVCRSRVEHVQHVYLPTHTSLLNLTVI
Kind of assay: MST.

Non-standard residues stand in square brackets, D forms with d. 1Nal = N[C@@H](Cc1cccc2ccccc12)C(=O)O

B1: RINGPep2 (cyclo-CF-Cha-LYT) (peptide)
chain: CFXLYT
HELM: PEPTIDE1{C.F.[Cha].L.Y.T}$PEPTIDE1,PEPTIDE1,1:R1-6:R2$$$V2.0
SMILES: CC(C)C[C@@H]1NC(=O)[C@H](CC2CCCCC2)NC(=O)[C@H](Cc2ccccc2)NC(=O)[C@H](CS)NC(=O)[C@H]([C@@H](C)O)NC(=O)[C@H](Cc2ccc(O)cc2)NC1=O
With B1, the dissociation constant Kd turned out to be 6.6 µM.
To cyclo(CF[1Nal]LYT) [RINGPep1 analogue containing 3-(1-naphthyl)-L-alanine] belongs 6.3 µM.
